Test results: patent US20140004107A1

Biological target: human ST2 on human primary cells (human) (UniProt Q01638)
Test: cell-based or functional assay

human ST2 on human primary cells (human), sequence (Q01638 19-556 A78X): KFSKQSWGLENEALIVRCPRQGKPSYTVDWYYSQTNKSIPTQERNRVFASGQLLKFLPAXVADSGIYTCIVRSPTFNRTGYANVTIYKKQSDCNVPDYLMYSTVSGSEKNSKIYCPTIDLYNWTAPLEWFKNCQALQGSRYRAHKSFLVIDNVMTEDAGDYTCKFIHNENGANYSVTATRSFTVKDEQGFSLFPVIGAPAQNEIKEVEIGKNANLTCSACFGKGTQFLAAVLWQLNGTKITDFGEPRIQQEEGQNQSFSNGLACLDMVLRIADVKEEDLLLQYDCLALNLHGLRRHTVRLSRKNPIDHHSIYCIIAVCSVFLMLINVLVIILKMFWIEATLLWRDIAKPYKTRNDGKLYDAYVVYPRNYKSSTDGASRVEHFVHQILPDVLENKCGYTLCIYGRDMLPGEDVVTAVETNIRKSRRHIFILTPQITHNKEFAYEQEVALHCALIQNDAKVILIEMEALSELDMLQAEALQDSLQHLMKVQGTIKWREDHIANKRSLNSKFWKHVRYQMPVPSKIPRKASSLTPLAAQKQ

Substance: 97203 (antibody)
- IC50 of inhibition of IL-33-dependent IFN-γ response of human NK cells (IL-33 10 ng/mL plus IL-12): 0.385 µg/mL
